Measurements published in US20220289816A1, “IMMUNOTHERAPY WITH B*07 RESTRICTED PEPTIDES AND COMBINATION OF PEPTIDES AGAINST CANCERS AND RELATED METHODS” (Immatics Biotechnologies GmbH, priority 2018, published 2022).

Columns and labels:
HLA-B*07 = HLA-B*07 (Homo sapiens, UniProt P01889); assay: MHC binding assay (UV-ligand exchange, ELISA of stabilized MHC complexes); settings: peptide exchange yield on HLA-B*07, UV-ligand exchange
How it was run: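 Binding is reported as exchange yield: an ELISA with HRP-conjugated anti-β2m (A450, TMB) quantified how much test peptide stabilized MHC after UV cleavage of a photolabile placeholder peptide. Exchange monomers were diluted 100-fold and captured on streptavidin-coated plates for 1 h at 37 °C.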

CD8+ T cells = assay: In vitro immunogenicity: in vitro T-cell priming assay with aAPCs loaded with peptide/MHC complexes and anti-CD28 antibody, pMHC multimer readout; format: cell-based, human; settings: Table 10b, pMHC multimer readout after priming of CD8+ T cells
Source text: In order to obtain information regarding the immunogenicity of the TUMAPs of the present invention, the inventors performed investigations using an in vitro T-cell priming assay based on repeated stimulations of CD8+ T cells with artificial antigen presenting cells (aAPCs) loaded with peptide/MHC complexes and anti-CD28 antibody.
In order to perform in vitro stimulations by artificial antigen presenting cells loaded with peptide-MHC complex (pMHC) and anti-CD28 antibody, the inventors first isolated CD8+ T cells from fresh HLA-B*07 leukapheresis products via positive selection using CD8 microbeads (Miltenyi Biotec, Bergisch-Gladbach, Germany) of healthy donors obtained from the University clinics Mannheim, Germany, after informed consent.
PBMCs and isolated CD8+ lymphocytes were incubated in T-cell medium (TCM) until use consisting of RPMI-Glutamax (Invitrogen, Karlsruhe, Germany) supplemented with 10% heat inactivated human AB serum (PAN-Biotech, Aidenbach, Germany), 100 U/ml Penicillin/100 μg/ml Streptomycin (Cambrex, Cologne, Germany), 1 mM sodium pyruvate (CC Pro, Oberdorla, Germany), 20 μg/ml Gentamycin (Cambrex). 2.5 ng/ml IL-7 (PromoCell, Heidelberg, Germany) and 10 U/ml IL-2 (Novartis Pharma, Nürnberg, Germany) were also added to the TCM at this step.
Generation of pMHC/anti-CD28 coated beads, T-cell stimulations and readout was performed in a highly defined in vitro system using four different pMHC molecules per stimulation condition and 8 different pMHC molecules per readout condition.
The purified co-stimulatory mouse IgG2a anti human CD28 Ab 9.3 (Jung et al., 1987) was chemically biotinylated using Sulfo-N-hydroxysuccinimidobiotin as recommended by the manufacturer (Perbio, Bonn, Germany). Beads used were 5.6 μm diameter streptavidin coated polystyrene particles (Bangs Laboratories, Illinois, USA).
800.000 beads/200 μl were coated in 96-well plates in the presence of 4×12.5 ng different biotin-pMHC, washed and 600 ng biotin anti-CD28 were added subsequently in a volume of 200 μl. Stimulations were initiated in 96-well plates by co-incubating 1×10^6 CD8+ T cells with 2×10^5 washed coated beads in 200 μl TCM supplemented with 5 ng/ml IL-12 (PromoCell) for 3 days at 37° C. Half of the medium was then exchanged by fresh TCM supplemented with 80 U/ml IL-2 and incubating was continued for four days at 37° C. This stimulation cycle was performed for a total of three times. For the pMHC multimer readout using 8 different pMHC molecules per condition, a two-dimensional combinatorial coding approach was used as previously described (Andersen et al., 2012) with minor modifications encompassing coupling to five different fluorochromes. Finally, multimeric analyses were performed by staining the cells with Live/dead near IR dye (Invitrogen, Karlsruhe, Germany), CD8-FITC antibody clone SK1 (BD, Heidelberg, Germany) and fluorescent pMHC multimers. For analysis, a BD LSRII SORP cytometer equipped with appropriate lasers and filters was used. Peptide specific cells were calculated as percentage of total CD8+ cells. Evaluation of multimeric analysis was done using the FlowJo software (Tree Star, Oregon, USA). In vitro priming of specific multimer+CD8+ lymphocytes was detected by comparing to negative control stimulations.

Peptide exchange (HLA-B*07) | Substance | Wells positive [%] (CD8+ T cells)
++++ (>75% = ++++) | 68 (FPNEVSVVL; listed as Homo sapiens) [compound 68] | ++ (20%-49% = ++)
++++ (>75% = ++++) | 53 (SPRIPFSTF; listed as Homo sapiens) [compound 53] | + (<20% = +)
++++ (>75% = ++++) | 51 (SPVFYVQTL; listed as Homo sapiens) [compound 51] | + (<20% = +)
++++ (>75% = ++++) | 24 (VPRPTSTVGLFL; listed as Homo sapiens) [compound 24] | + (<20% = +)
+++ (>50 = +++) | 4 (GPKKFIVKL; listed as Homo sapiens) [compound 4] | + (<20% = +)
+++ (>50 = +++) | 23 (VPRPTSTVGL; listed as Homo sapiens) [compound 23] | ++ (20%-49% = ++)
+++ (>50 = +++) | 48 (RPRYSIGL; listed as Homo sapiens) [compound 48] | + (<20% = +)
++++ (>75% = ++++) | 3 (MPYVVLTAL; listed as Homo sapiens) [compound 3] | + (<20% = +)
++++ (>75% = ++++) | 26 (SPSFSSTLLSL; listed as Homo sapiens) [compound 26] | + (<20% = +)
+++ (>50 = +++) | 45 (TRPWSGPYIL; listed as Homo sapiens) [compound 45] | + (<20% = +)
++++ (>75% = ++++) | 366 (SPTLRQLDL; listed as Homo sapiens) [compound 366] | ++ (20%-49% = ++)
++++ (>75% = ++++) | 365 (RPKHFLQML; listed as Homo sapiens) [compound 365] | + (<20% = +)
+++ (>50 = +++) | 49 (APEKARAFL; listed as Homo sapiens) [compound 49] | + (<20% = +)
